Data on 1 molecule can be found in US20220251518A1 (published 2022).

The assay has as its target T1, Aβ1-42, monomer and/or protofibrils (form not told for the result) (human, UniProt P05067 672-713).
T1 construct: domain: amyloid beta (Aβ) 1-42 peptide; also called Aβ1-42 peptide or protofibrils; mixture of Aβ1-42 peptide (monomer) and protofibrils
In words: BLI (Octet RED 96), antibody captured on anti-rat IgG probe; monomer or protofibrils not told. In general terms: Biolayer interferometry detects binding as a change in optical thickness at a sensor tip.

T1 sequence (P05067 672-713 limits assumed): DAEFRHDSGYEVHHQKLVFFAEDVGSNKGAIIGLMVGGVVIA

B1: monoclonal antibody 11G10 (antibody, V domains shown)
VH: EVQLQQSGAEIVKPGASVKLSCKASGYTFTSYWMHWVKQRPGQGLEWIGEIDPSDSYTNYNQKFKGKATLTVDKSSSTAYMQLRSLTSEDSAVYYCARSFHGNLFVYWGQGTLVTVSA
VL: QIVLTQSPAIMSASPGEKVTITCSASSSVSYMHWFQQKPGTSPKLWIYSTSNLATGVPARFSGSGSGTSYSLTISRMEAEDAATYYCQQRSSYPLTFGAGTKLEIK
What is called Kd is the free concentration of one partner at which half of the binding sites on the other are occupied at equilibrium, for simple one-to-one binding. Lower therefore signals tighter binding. In turn, B1 registered a Kd of 1 pM.
